Key:
streptavidin [1] = biological target: streptavidin (UniProt P22629); experiment: flow cytometry, antibody staining of STV magnetic beads, BD Quantibrite PE standard curve
streptavidin [2] = biological target: streptavidin (UniProt P22629); experiment: flow cytometry, antibody staining of STV porous hydrogel microspheres, BD Quantibrite PE standard curve
streptavidin [3] = biological target: streptavidin (UniProt P22629); experiment: flow cytometry, antibody staining of STV smooth hydrogel microspheres, BD Quantibrite PE standard curve
[4] = biological target: TRAIL receptors DR4 and/or DR5; experiment: cell-based or functional assay

Sequence of streptavidin (P22629 37-163 limits assumed): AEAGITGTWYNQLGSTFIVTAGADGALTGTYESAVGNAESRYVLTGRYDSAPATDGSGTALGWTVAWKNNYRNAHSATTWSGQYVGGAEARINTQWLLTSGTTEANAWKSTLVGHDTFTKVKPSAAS

“PE-anti-streptavidin antibody (BioLegend, clone: 3A20.2)” showed a # of STV molecules/bead (molecules/bead) (streptavidin [1]) of 120000, a # of STV molecules/bead (molecules/bead) (streptavidin [2]) of 20100 and a # of STV molecules/bead (molecules/bead) (streptavidin [3]) of 20100.

Substance soluble TRAIL protein (ligand) has an Early Stage Apoptotic (7-AAD-/Annexin V+), Jeko-1, 24 Hrs.; Soluble TRAIL [4] of 35.8%, an Early Stage Apoptotic (7-AAD-/Annexin V+), Jeko-1, 48 Hrs.; Soluble TRAIL [4] of 9.88% and an Early Stage Apoptotic (7-AAD-/Annexin V+), Jurkat, 24 Hrs.; Soluble TRAIL [4] of 51.1%. It also gave an Early Stage Apoptotic (7-AAD-/Annexin V+), Jurkat, 48 Hrs.; Soluble TRAIL [4] of 20.4%, a Late Stage Apoptotic (7-AAD+/Annexin V+), Jeko-1, 24 Hrs.; Soluble TRAIL [4] of 26.4% and a Late Stage Apoptotic (7-AAD+/Annexin V+), Jeko-1, 48 Hrs.; Soluble TRAIL [4] of 59.7%. For the same substance, the Late Stage Apoptotic (7-AAD+/Annexin V+), Jurkat, 24 Hrs.; Soluble TRAIL [4] was 22.5%, the Late Stage Apoptotic (7-AAD+/Annexin V+), Jurkat, 48 Hrs.; Soluble TRAIL [4] was 56.9% and the Live Cells (7-AAD-/Annexin V-), Jeko-1, 24 Hrs.; Soluble TRAIL [4] was 37.8%. It also gave a Live Cells (7-AAD-/Annexin V-), Jeko-1, 48 Hrs.; Soluble TRAIL [4] of 30.2%, a Live Cells (7-AAD-/Annexin V-), Jurkat, 24 Hrs.; Soluble TRAIL [4] of 26.3% and a Live Cells (7-AAD-/Annexin V-), Jurkat, 48 Hrs.; Soluble TRAIL [4] of 21.3%. The Necrotic (7-AAD+/Annexin V-), Jeko-1, 24 Hrs.; Soluble TRAIL [4] was 0.076%, the Necrotic (7-AAD+/Annexin V-), Jeko-1, 48 Hrs.; Soluble TRAIL [4] was 0.16% and the Necrotic (7-AAD+/Annexin V-), Jurkat, 24 Hrs.; Soluble TRAIL [4] was 0.11%. For the same substance, the Necrotic (7-AAD+/Annexin V-), Jurkat, 48 Hrs.; Soluble TRAIL [4] was 1.42%, the percentage of apoptotic cells (Annexin V-positive), Jeko-1, 24 h; soluble TRAIL protein [4] was 60.7% and the percentage of apoptotic cells, Jeko-1, 48 hours; soluble TRAIL protein [4] was 69.8%. The percentage of apoptotic cells, Jurkat, 24 h; soluble TRAIL protein [4] was 72.9% and the percentage of apoptotic cells, Jurkat, 48 h; soluble TRAIL protein [4] was 73%.

“Biotinylated Fc-TRAIL: active fragment of the human TRAIL protein comprising SEQ ID NO: 2 with a mouse IgG2a-Fc Tag at the N-terminus (ACROBiosystems TRLH52591MG), biotinylated with Oyo-link single biotin (from UniProt P50591 114-281) (Fc fusion)” showed an Early Stage Apoptotic (7-AAD-/Annexin V+), Jeko-1, 24 Hrs.; TRAIL Magnetic Beads [4] of 25.8%, an Early Stage Apoptotic (7-AAD-/Annexin V+), Jeko-1, 24 Hrs.; TRAIL Porous Hydrogels [4] of 52.1% and an Early Stage Apoptotic (7-AAD-/Annexin V+), Jeko-1, 24 Hrs.; TRAIL Smooth Hydrogels [4] of 44.8%. For the same substance, the Early Stage Apoptotic (7-AAD-/Annexin V+), Jeko-1, 24 Hrs.; TRAIL encapsulated PLGA [4] was 3.08%, the Early Stage Apoptotic (7-AAD-/Annexin V+), Jeko-1, 48 Hrs.; TRAIL Magnetic Beads [4] was 6.55% and the Early Stage Apoptotic (7-AAD-/Annexin V+), Jeko-1, 48 Hrs.; TRAIL Porous Hydrogels [4] was 5.77%. For the same substance, the Early Stage Apoptotic (7-AAD-/Annexin V+), Jeko-1, 48 Hrs.; TRAIL Smooth Hydrogels [4] was 11.9%, the Early Stage Apoptotic (7-AAD-/Annexin V+), Jeko-1, 48 Hrs.; TRAIL encapsulated PLGA [4] was 3.07% and the Early Stage Apoptotic (7-AAD-/Annexin V+), Jurkat, 24 Hrs.; TRAIL Magnetic Beads [4] was 22.3%. The Early Stage Apoptotic (7-AAD-/Annexin V+), Jurkat, 24 Hrs.; TRAIL Porous Hydrogels [4] was 41.9%, the Early Stage Apoptotic (7-AAD-/Annexin V+), Jurkat, 24 Hrs.; TRAIL Smooth Hydrogels [4] was 39% and the Early Stage Apoptotic (7-AAD-/Annexin V+), Jurkat, 24 Hrs.; TRAIL encapsulated PLGA [4] was 7.86%. For the same substance, the Early Stage Apoptotic (7-AAD-/Annexin V+), Jurkat, 48 Hrs.; TRAIL Magnetic Beads [4] was 13.8%, the Early Stage Apoptotic (7-AAD-/Annexin V+), Jurkat, 48 Hrs.; TRAIL Porous Hydrogels [4] was 22.5% and the Early Stage Apoptotic (7-AAD-/Annexin V+), Jurkat, 48 Hrs.; TRAIL Smooth Hydrogels [4] was 18.3%. For the same substance, the Early Stage Apoptotic (7-AAD-/Annexin V+), Jurkat, 48 Hrs.; TRAIL encapsulated PLGA [4] was 3.1%, the Late Stage Apoptotic (7-AAD+/Annexin V+), Jeko-1, 24 Hrs.; TRAIL Magnetic Beads [4] was 20.1% and the Late Stage Apoptotic (7-AAD+/Annexin V+), Jeko-1, 24 Hrs.; TRAIL Porous Hydrogels [4] was 33.9%. The Late Stage Apoptotic (7-AAD+/Annexin V+), Jeko-1, 24 Hrs.; TRAIL Smooth Hydrogels [4] was 16.9%, the Late Stage Apoptotic (7-AAD+/Annexin V+), Jeko-1, 24 Hrs.; TRAIL encapsulated PLGA [4] was 5.34% and the Late Stage Apoptotic (7-AAD+/Annexin V+), Jeko-1, 48 Hrs.; TRAIL Magnetic Beads [4] was 44.1%. The Late Stage Apoptotic (7-AAD+/Annexin V+), Jeko-1, 48 Hrs.; TRAIL Porous Hydrogels [4] was 87.5%, the Late Stage Apoptotic (7-AAD+/Annexin V+), Jeko-1, 48 Hrs.; TRAIL Smooth Hydrogels [4] was 43.1% and the Late Stage Apoptotic (7-AAD+/Annexin V+), Jeko-1, 48 Hrs.; TRAIL encapsulated PLGA [4] was 13.9%. For the same substance, the Late Stage Apoptotic (7-AAD+/Annexin V+), Jurkat, 24 Hrs.; TRAIL Magnetic Beads [4] was 14.9%, the Late Stage Apoptotic (7-AAD+/Annexin V+), Jurkat, 24 Hrs.; TRAIL Porous Hydrogels [4] was 18.8% and the Late Stage Apoptotic (7-AAD+/Annexin V+), Jurkat, 24 Hrs.; TRAIL Smooth Hydrogels [4] was 18%. The Late Stage Apoptotic (7-AAD+/Annexin V+), Jurkat, 24 Hrs.; TRAIL encapsulated PLGA [4] was 3.17%, the Late Stage Apoptotic (7-AAD+/Annexin V+), Jurkat, 48 Hrs.; TRAIL Magnetic Beads [4] was 32.9% and the Late Stage Apoptotic (7-AAD+/Annexin V+), Jurkat, 48 Hrs.; TRAIL Porous Hydrogels [4] was 63.5%. The Late Stage Apoptotic (7-AAD+/Annexin V+), Jurkat, 48 Hrs.; TRAIL Smooth Hydrogels [4] was 43%, the Late Stage Apoptotic (7-AAD+/Annexin V+), Jurkat, 48 Hrs.; TRAIL encapsulated PLGA [4] was 5.7% and the Live Cells (7-AAD-/Annexin V-), Jeko-1, 24 Hrs.; TRAIL Magnetic Beads [4] was 54%. It also gave a Live Cells (7-AAD-/Annexin V-), Jeko-1, 24 Hrs.; TRAIL Porous Hydrogels [4] of 13.6%, a Live Cells (7-AAD-/Annexin V-), Jeko-1, 24 Hrs.; TRAIL Smooth Hydrogels [4] of 38.2% and a Live Cells (7-AAD-/Annexin V-), Jeko-1, 24 Hrs.; TRAIL encapsulated PLGA [4] of 91.5%. For the same substance, the Live Cells (7-AAD-/Annexin V-), Jeko-1, 48 Hrs.; TRAIL Magnetic Beads [4] was 48.2%, the Live Cells (7-AAD-/Annexin V-), Jeko-1, 48 Hrs.; TRAIL Porous Hydrogels [4] was 5.18% and the Live Cells (7-AAD-/Annexin V-), Jeko-1, 48 Hrs.; TRAIL Smooth Hydrogels [4] was 44.8%. For the same substance, the Live Cells (7-AAD-/Annexin V-), Jeko-1, 48 Hrs.; TRAIL encapsulated PLGA [4] was 82.4%, the Live Cells (7-AAD-/Annexin V-), Jurkat, 24 Hrs.; TRAIL Magnetic Beads [4] was 62.5% and the Live Cells (7-AAD-/Annexin V-), Jurkat, 24 Hrs.; TRAIL Porous Hydrogels [4] was 39.1%. The Live Cells (7-AAD-/Annexin V-), Jurkat, 24 Hrs.; TRAIL Smooth Hydrogels [4] was 42.7%, the Live Cells (7-AAD-/Annexin V-), Jurkat, 24 Hrs.; TRAIL encapsulated PLGA [4] was 88.6% and the Live Cells (7-AAD-/Annexin V-), Jurkat, 48 Hrs.; TRAIL Magnetic Beads [4] was 49.7%. For the same substance, the Live Cells (7-AAD-/Annexin V-), Jurkat, 48 Hrs.; TRAIL Porous Hydrogels [4] was 12%, the Live Cells (7-AAD-/Annexin V-), Jurkat, 48 Hrs.; TRAIL Smooth Hydrogels [4] was 36% and the Live Cells (7-AAD-/Annexin V-), Jurkat, 48 Hrs.; TRAIL encapsulated PLGA [4] was 85.6%. It also gave a Necrotic (7-AAD+/Annexin V-), Jeko-1, 24 Hrs.; TRAIL Magnetic Beads [4] of 0.12%, a Necrotic (7-AAD+/Annexin V-), Jeko-1, 24 Hrs.; TRAIL Porous Hydrogels [4] of 0.34% and a Necrotic (7-AAD+/Annexin V-), Jeko-1, 24 Hrs.; TRAIL Smooth Hydrogels [4] of 0.1%. It also gave a Necrotic (7-AAD+/Annexin V-), Jeko-1, 24 Hrs.; TRAIL encapsulated PLGA [4] of 0.088%, a Necrotic (7-AAD+/Annexin V-), Jeko-1, 48 Hrs.; TRAIL Magnetic Beads [4] of 1.08% and a Necrotic (7-AAD+/Annexin V-), Jeko-1, 48 Hrs.; TRAIL Smooth Hydrogels [4] of 0.17%. It also gave a Necrotic (7-AAD+/Annexin V-), Jeko-1, 48 Hrs.; TRAIL encapsulated PLGA [4] of 0.62%, a Necrotic (7-AAD+/Annexin V-), Jurkat, 24 Hrs.; TRAIL Magnetic Beads [4] of 0.28% and a Necrotic (7-AAD+/Annexin V-), Jurkat, 24 Hrs.; TRAIL Porous Hydrogels [4] of 0.18%. The Necrotic (7-AAD+/Annexin V-), Jurkat, 24 Hrs.; TRAIL Smooth Hydrogels [4] was 0.23%, the Necrotic (7-AAD+/Annexin V-), Jurkat, 24 Hrs.; TRAIL encapsulated PLGA [4] was 0.36% and the Necrotic (7-AAD+/Annexin V-), Jurkat, 48 Hrs.; TRAIL Magnetic Beads [4] was 3.61%. For the same substance, the Necrotic (7-AAD+/Annexin V-), Jurkat, 48 Hrs.; TRAIL Porous Hydrogels [4] was 2.1%, the Necrotic (7-AAD+/Annexin V-), Jurkat, 48 Hrs.; TRAIL Smooth Hydrogels [4] was 2.67% and the Necrotic (7-AAD+/Annexin V-), Jurkat, 48 Hrs.; TRAIL encapsulated PLGA [4] was 5.61%. It also gave a percentage of apoptotic cells (Annexin V-positive), Jeko-1, 24 h; TRAIL attached to magnetic beads [4] of 47.1%, a percentage of apoptotic cells (Annexin V-positive), Jeko-1, 24 h; TRAIL encapsulated in PLGA microspheres [4] of 9.69% and a percentage of apoptotic cells (Annexin V-positive), Jeko-1, 24 h; TRAIL on porous hydrogel microspheres [4] of 86.3%. For the same substance, the percentage of apoptotic cells (Annexin V-positive), Jeko-1, 24 h; TRAIL on smooth hydrogel microspheres [4] was 66.3%, the percentage of apoptotic cells, Jeko-1, 48 hours; TRAIL attached to magnetic beads [4] was 50.1% and the percentage of apoptotic cells, Jeko-1, 48 hours; TRAIL encapsulated in PLGA microspheres [4] was 17.2%. For the same substance, the percentage of apoptotic cells, Jeko-1, 48 hours; TRAIL on porous hydrogel microspheres [4] was 93%, the percentage of apoptotic cells, Jurkat, 24 h; TRAIL attached to magnetic beads [4] was 39.5% and the percentage of apoptotic cells, Jurkat, 24 h; TRAIL encapsulated in PLGA microspheres [4] was 6.45%. For the same substance, the percentage of apoptotic cells, Jurkat, 24 h; TRAIL on porous hydrogel microspheres [4] was 78%, the percentage of apoptotic cells, Jurkat, 48 h; TRAIL attached to magnetic beads [4] was 57.2% and the percentage of apoptotic cells, Jurkat, 48 h; TRAIL encapsulated in PLGA microspheres [4] was 7.87%. For the same substance, the percentage of apoptotic cells, Jurkat, 48 h; TRAIL on porous hydrogel microspheres [4] was 81.4% and the percentage of early apoptotic cells, Jeko-1, 24 h; TRAIL on porous hydrogel microspheres (text value; Table 4A prints 52.1) [4] was 52.3%.
